In the supplement of paper PMC9170038:

Test system: MS2 coat protein
Assay: apparent KD of MS2 coat protein; designed switch direction (-1 OFF switch, 1 ON switch): 1; higher = weaker reporter binding
Outline: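 Designed RNA switches with common flanks were made on Illumina chips by stalled E. coli RNA polymerase. Titration with SNAP-549-labelled MS2 coat protein doubled from 0.7 or 1.5 nM up to 3 µM. Apparent KD is each design's median over clusters after curve-fitting normalised fluorescence.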

[1] = Eterna round: R95, input ligand: FMN 200 uM
[2] = Eterna round: R95, input ligand: microRNA oligo, concentration not stated
[3] = Eterna round: R95, input ligand: none
[4] = input ligand: microRNA oligo, concentration not stated

| Sequence | apparent KD of MS2 coat protein [1] | apparent KD of MS2 coat protein [2] | apparent KD of MS2 coat protein [3] | apparent KD of MS2 coat protein (input ligand: FMN 200 uM) | apparent KD of MS2 coat protein [4] | apparent KD of MS2 coat protein (input ligand: none) |
| --- | --- | --- | --- | --- | --- | --- |
| AGGCAAGCUUUUUGCUGGUAUGAAGGAGAACAUGAGGAUCACCCAUGUAUUAGAGGUGUAGAGGAUUUGAGAAAGAA [JR_SHM208A_Sub003] (puzzle: Sensor for hsa-mir-208a) | 96.8 nM | 91.8 nM | 134 nM | – | – | – |
| AUAAAACAUGAGGAUCACCCAUGUCUCUAAAGUCGAGGAUAUGGGCAAAUAAUAUAAGAACCAGAAGGCGAAUAAU [SS1 Teenbexe 3] (puzzle: Same State 1) | 58.1 nM | 51.2 nM | 530 nM | – | – | – |
| UUGAUGAACUGAGGAUAUCGAGUCGUCUCAUUACACAUGAGGAUCACCCAUGUGGGUUGUGGUAUCGAGAAGGCAGAAUACUCA [JR_SSNG2_Sub033] (Eterna round: R96, puzzle: Same State NG 2) | – | – | – | 25.1 nM | 28.7 nM | 32.8 nM |
| UCUGCAAGAACAGGAUAUGGGUUCAGAGCGGGAGUGCGCUUUGAUACAUGAGGAUCACCCAUGUCCCAGAAGGGUUCAAGCGGC [Maedraedbi] (Eterna round: R96, puzzle: Same State NG 2) | – | – | – | 32.9 nM | 35.2 nM | 188 nM |
| GCUAGGAAAUAAGCCAACAUGAGGAUCACCCAUGUAUGUUGGUAGGAUAUCGUUUGCAAAGCAAACGAGAAGGGCUAACCUAGC [Mat - Same State NG 3 - JL Mod - D70] (Eterna round: R96, puzzle: Same State NG 3) | – | – | – | 72.2 nM | 70.6 nM | 85.9 nM |
| AGUCCAGCAUGAGCUGGACAAAAGCAUGUACAUGAGGAUCACCCAUGUCAUGUACAAGCUUUUUGCUCGUCUUAAUA [Mat - hsa-mir-208a - Mod of JL - D35] (puzzle: Sensor for hsa-mir-208a) | 513 nM | 15.9 nM | 534 nM | – | – | – |
| UCUUGGUUUUUGCUCGUUUUUUGUGUUGAACAUGAGGAUCACCCAUGUAUUGUACAAUCCAAUUUAAUAAUGGUCCG [JMF 48] (puzzle: Sensor for hsa-mir-208a) | 74.7 nM | 81.7 nM | 94 nM | – | – | – |
| UGUUGUUACGCAGGAUAUGGUCACAUGAGGAUCACCCAUGUAUUGUCGAUGCUAUGUGGAUUUGAUCAGAAGGGCGGGUUAACA [SameState NG2 #100] (Eterna round: R96, puzzle: Same State NG 2) | – | – | – | 63.8 nM | 88.9 nM | 103 nM |
| GGUCCAGCCUGAGCUGGACAAAAGCAUGUACAUGAGGAUCACCCAUGUUCAUGUACAAGCUUUUUGCUCGUCUUAUC [salish99_208a_r3_056] (puzzle: Sensor for hsa-mir-208a) | 431 nM | 14.6 nM | 664 nM | – | – | – |
| CUCAACAACACAGGAUAUCCAGGGAAAAGAACUGGAGAAGGGUGACCAACAUGAGGAUCACCCAUGUGAUAGCUAGGCUGUCUG [Lararariso] (Eterna round: R96, puzzle: Same State NG 1) | – | – | – | 24 nM | 191 nM | 1300 nM |
| AUAUGAGAAGCAGGAUAUGCGGAGAAGAAAGAAGCAGAAGGGCUUAUGGGACAACAUGAGGAUCACCCAUGUUCUCUGUGAUGA [AK SSNG1-V2-3] (Eterna round: R96, puzzle: Same State NG 1) | – | – | – | 24.3 nM | 48.9 nM | 56.5 nM |
| ACUAUUUAUGCAGGAUAUGAUUAACAUGAGGAUCACCCAUGUGGUGUUGUGAGUAAGGAGAGUGAUCAGAAGGGCAUUUUUUUU [JMF's solution 75] (Eterna round: R96, puzzle: Same State NG 2) | – | – | – | 518 nM | 297 nM | 359 nM |
| GAAACAUGACGAGGAUAUGGAACAUGAGGAUCACCCAUGUAUGUUCCAUAACGCGAAUGACGAAUCCAGAAGGCGUCGUGAAAG [Mat - Same State NG 2 - JL mod - D28] (Eterna round: R96, puzzle: Same State NG 2) | – | – | – | 33.6 nM | 177 nM | 233 nM |
| GGUAUCGGCACAGGAUAUGCUAUCCUUUGGGUAGCAGAAGGGUGGAACAUGAGGAUCACCCAUGUGGUGCCAGGGCGUGAGCCC [JL SSNG1 1.88] (Eterna round: R96, puzzle: Same State NG 1) | – | – | – | 586 nM | 125 nM | 909 nM |
| UGAAUGGUGAUAGGAUAUACAUGAGGAAUCCUCGUAGAAGGAUCAUGACAUGAGGAUCACCCAUGUAGCGCUCCGUAGAGCGCA [JL SSNG1 1.21] (Eterna round: R96, puzzle: Same State NG 1) | – | – | – | 53 nM | 19.7 nM | 154 nM |
